Experiment [1] concerns the target SUMO E2 (Ubc9) (Homo sapiens) (UniProt P63279). Kind of experiment: NMR. Particulars: cited from earlier work.
Experiment [2] has the same target. Particulars: cited from earlier work.
The target in experiment [3] is T1, human SUMO E2 conjugating enzyme Ubc9, full length (human, UniProt P63279 1-158, lysines methylated (borane-dimethylamine complex and formaldehyde), only in the complex that was crystallised).
T1 construct: SUMO-conjugating enzyme Ubc9, human, full length; Cloned in pET28a; the His tag was removed with thrombin, so a few residues of the vector may remain at the N-terminus; The complex with the UFD was lysine-methylated after gel filtration and only then crystallised; also called hSUMO Ubc9; source: E. coli BL21(DE3) pLysS, purified (Ni-NTA, thrombin, Superdex75 gel filtration); not shown: His6, …
T1 sequence (P63279 whole entry): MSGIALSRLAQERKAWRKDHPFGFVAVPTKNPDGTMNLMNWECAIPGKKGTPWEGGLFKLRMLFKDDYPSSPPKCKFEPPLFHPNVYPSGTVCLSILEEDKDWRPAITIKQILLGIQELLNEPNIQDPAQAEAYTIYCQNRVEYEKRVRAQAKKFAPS
In words: native gel or EMSA; native gel electrophoresis of human E1 UFD domain with Ubc9 (Supplementary Fig. S1). Conditions: both partners purified. On the technique in general: A gel shift assay detects complexes by their altered migration in electrophoresis.

Where two headings read alike, the source gives them in different places.

SUMO E2 (Ubc9) (Homo sapiens), sequence (P63279 2-158): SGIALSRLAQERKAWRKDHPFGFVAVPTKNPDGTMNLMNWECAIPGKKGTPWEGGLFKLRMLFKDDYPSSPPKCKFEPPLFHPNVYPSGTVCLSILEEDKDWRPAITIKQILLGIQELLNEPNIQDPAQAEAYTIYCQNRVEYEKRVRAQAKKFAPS

One may read the Kd as the constant that tells how readily two partners part at equilibrium. “SUMO E1 Cys domain Cys domain (from UniProt Q9UBT2)”: in experiment [1], the Kd is 87 µM.

Turning to SUMO E1 UFD UFD (from UniProt Q9UBT2), the Kd in experiment [2] is 1.2 µM.

B1: human SUMO E1 Uba2 ubiquitin-fold domain (UFD), residues 447-547 (domain or fragment, UniProt Q9UBT2 447-547, looked up)
chain: KPEVTVRLNVHKVTVLTLQDKIVKEKFAMVAPDVQIEDGKGTILISSEEGETEANNHKKLSEFGIRNGSRLQADDFLQDYTLLINILHSEDLGKDVEFEVV
modifications: lysines methylated (borane-dimethylamine complex and formaldehyde), only in the complex that was crystallised
notes: designed from the structure of full-length human SAE1-SAE2 (PDB 1Y8Q); Cloned in pET28a; the His tag was removed with thrombin, so a few residues of the vector may remain at the N-terminus; The complex with Ubc9 was lysine-methylated after gel filtration and only then crystallised; the native gel and the gel filtration used the unmethylated protein; also called E1 UFD domain; HsUba2 UFD; source: …
For B1, the binding result in experiment [3] is “binds”.

These data come from paper PMC5292753, “Structural analysis and evolution of specificity of the SUMO UFD E1-E2 interactions” (Scientific Reports, 2017).
